Source: patent US20240041976A1, “COMPOSITION AND USE” (priority 2020, published 2024)

Legend:
[1] = test system: S.a. 3255; assay: Planktonic cell growth inhibition assay (MIC50, liquid culture); format: cell-based, Staphylococcus aureus
Experimental: (§1) Growth inhibition assays were performed in 96-well microtiter plates as described previously (Chi and Holo, 2018, supra). Briefly, 135 μl of TSB were dispensed in each well of a microtiter plate (according to the number of bacterial strains tested) except in the wells of the first row. The antimicrobials were diluted in TSB to working concentrations in a final volume of 285 μl and dispensed in the wells of the first row. The working concentrations were 100 μg/μl for garvicin KS, 10 μg/μl for micrococcin P1 and 1 mg/ml for penicillin G. From the first row, 150 μl of the antimicrobials were then serially diluted (two-fold dilutions) in a sequential fashion until the last row of the plate. Finally, 15 μl of a fresh O/N culture of each strain were added in the appropriate wells to reach a final volume of 150 μl in each well. The plates were then incubated at 37° C. for 24 h. The growth inhibition was expressed as minimum inhibitory concentration (MIC50), which refers to the minimum concentration of the antimicrobial needed to reduce at least 50% of the microbial growth compared to the untreated control. The MIC50 was assessed by optical density readings at 600 nm (O.D.600).
(§2) Synergistic interactions between antimicrobials were determined using the fractional inhibition concentration (FIC). The FIC values were calculated as follows: the sum of the FIC =FICa+FICb+FICc, where the FICa means MIC of A in combination/MIC of A alone, FICb means MIC of B in combination/MIC of B, and FICc means MIC of C in combination/MIC of C alone. Effects were considered as synergistic if FIC was ≤0.5 for two components mixture and ≤0.75 for three components mixture.

[2] = test system: S. aureus Newman; assay: as above; format: cell-based, Staphylococcus aureus
Experimental: as §1, §2

[3] = test system: S. aureus ATTC 29213; assay: as above; format: cell-based, Staphylococcus aureus
Experimental: as §1, §2

[4] = test system: S. aureus USA 300; assay: as above; format: cell-based, Staphylococcus aureus
Experimental: as §1, §2

[5] = test system: S. aureus ATTC 33591; assay: as above; format: cell-based, Staphylococcus aureus
Experimental: as §1, §2

[6] = test system: S. aureus ATTC 10832; assay: as above; format: cell-based, Staphylococcus aureus
Experimental: as §1, §2

[7] = test system: S. haemolyticus 4071; assay: microbe, parasite or virus in culture; details: 4071; for MIC: individual component
Experimental: as §1, §2
(§3) Bacteriocins and antimicrobial assays. […] These bacteriocins were all solubilized in 0.1% (vol/vol) trifluoracetic acid (TFA; Sigma-Aldrich). […] Cell growth inhibition assays and antimicrobial synergy determination was performed in line with Example 1.
(§4) To investigate whether there was synergy between the three bacteriocins (K1-EJ, GarKS and MP1), a checkboard antimicrobial assay was performed. The selected strains were treated for 5, 24 and 48 h with a range of concentrations of K1-EJ, GarKS and MP1 alone or in different combinations.

[8] = test system: S. haemolyticus 4069; assay: microbe, parasite or virus in culture; details: 4069; for MIC: individual component
Experimental: as §1, §2, §3, §4

[9] = test system: S. haemolyticus 4068; assay: microbe, parasite or virus in culture; details: 4068; for MIC: individual component
Experimental: as §1, §2, §3, §4

[10] = test system: S. haemolyticus 4072; assay: microbe, parasite or virus in culture; details: 4072; for MIC: individual component
Experimental: as §1, §2, §3, §4

[11] = test system: S. haemolyticus 4073; assay: microbe, parasite or virus in culture; details: 4073; for MIC: individual component
Experimental: as §1, §2, §3, §4

[12] = garvicin KS + micrococcin P1 + penicillin G

B1: Garvicin KS: three-peptide leaderless bacteriocin (GarA, GarB, GarC; SEQ ID NO:6-8), peptides synthesized (peptide, listed as Lactococcus garvieae)
chain 1: MGAIIKAGAKIVGKGVLGGGASWLGWNVGEKIWK
chain 2: MGAIIKAGAKIIGKGLLGGAAGGATYGGLKKIFG
chain 3: MGAIIKAGAKIVGKGALTGGGVWLAEKLFGGK
- MIC50 of the component in combination ([1]; garvicin KS + micrococcin P1): 0.013 mg/mL
- MIC50 of the component in combination [1, 12]: <7.8 × 10^−4. mg/ml
- MIC50 of the component in combination ([1]; garvicin KS + penicillin G): <0.00078 mg/mL
- MIC50 ([1]; individual component): 0.025 mg/mL
- MIC50 of the component in combination ([2]; garvicin KS + micrococcin P1): 3130 ng/mL
- MIC50 of the component in combination [2, 12]: <780 ng/mL
- MIC50 of the component in combination ([2]; garvicin KS + penicillin G): <780 ng/mL
- MIC50 ([2]; individual component): 0.025 mg/mL
- MIC50 of the component in combination ([3]; garvicin KS + micrococcin P1): 0.013 mg/mL
- MIC50 of the component in combination [3, 12]: 0.0031 mg/mL
- MIC50 of the component in combination ([3]; garvicin KS + penicillin G): 0.013 mg/mL
- MIC50 ([3]; individual component): 0.025 mg/mL
- MIC50 of the component in combination ([4]; garvicin KS + micrococcin P1): 1.56 µg/mL
- MIC50 of the component in combination [4, 12]: 6.3 µg/mL
- MIC50 of the component in combination ([4]; garvicin KS + penicillin G): 25 µg/mL
- MIC50 ([4]; individual component): 0.025 mg/mL
- MIC50 of the component in combination ([5]; garvicin KS + micrococcin P1): 0.013 mg/mL
- MIC50 of the component in combination [5, 12]: 0.013 mg/mL
- MIC50 of the component in combination ([5]; garvicin KS + penicillin G): 0.05 mg/mL
- MIC50 ([5]; individual component): 0.05 mg/mL
- MIC50 of the component in combination ([6]; garvicin KS + micrococcin P1): 6300 ng/mL
- MIC50 of the component in combination [6, 12]: <780 ng/mL
- MIC50 of the component in combination ([6]; garvicin KS + penicillin G): <780 ng/mL
- MIC50 ([6]; individual component): 0.025 mg/mL
- MIC of the component in combination ([7]; 5 h, GarKS + MP1): 0.68 µg/mL
- MIC of the component in combination ([7]; 5 h, K1-EJ + GarKS): 1.6 µg/mL
- MIC of the component in combination ([7]; 5 h, K1-EJ + GarKS + MP1): 0.72 µg/mL
- MIC ([7]; 5 h): 12.5 µg/mL
- MIC of the component in combination ([7]; 24 h, GarKS + MP1): 6.3 µg/mL
- MIC of the component in combination ([7]; 24 h, K1-EJ + GarKS): 12 µg/mL
- MIC of the component in combination ([7]; 24 h, K1-EJ + GarKS + MP1): 1.6 µg/mL
- MIC ([7]; 24 h): 51 µg/mL
- MIC of the component in combination ([7]; 48 h, GarKS + MP1): 6.5 µg/mL
- MIC of the component in combination ([7]; 48 h, K1-EJ + GarKS): 24 µg/mL
- MIC of the component in combination ([7]; 48 h, K1-EJ + GarKS + MP1): 3.3 µg/mL
- MIC ([7]; 48 h): 100 µg/mL
- MIC of the component in combination ([8]; 5 h, GarKS + MP1): 1.6 µg/mL
- MIC of the component in combination ([8]; 5 h, K1-EJ + GarKS): 1.4 µg/mL
- MIC of the component in combination ([8]; 5 h, K1-EJ + GarKS + MP1): 0.68 µg/mL
- MIC ([8]; 5 h): 3.3 µg/mL
- MIC of the component in combination ([8]; 24 h, GarKS + MP1): 25 µg/mL
- MIC of the component in combination ([8]; 24 h, K1-EJ + GarKS): 6 µg/mL
- MIC of the component in combination ([8]; 24 h, K1-EJ + GarKS + MP1): 3.3 µg/mL
- MIC ([8]; 24 h): 13 µg/mL
- MIC of the component in combination ([8]; 48 h, GarKS + MP1): 50 µg/mL
- MIC of the component in combination ([8]; 48 h, K1-EJ + GarKS): 6.5 µg/mL
- MIC of the component in combination ([8]; 48 h, K1-EJ + GarKS + MP1): 5.8 µg/mL
- MIC ([8]; 48 h): 26 µg/mL
- MIC of the component in combination ([9]; 5 h, GarKS + MP1): 0.2 µg/mL
- MIC of the component in combination ([9]; 5 h, K1-EJ + GarKS): 0.83 µg/mL
- MIC of the component in combination ([9]; 5 h, K1-EJ + GarKS + MP1): 0.32 µg/mL
- MIC ([9]; 5 h): 6.5 µg/mL
- MIC of the component in combination ([9]; 24 h, GarKS + MP1): 0.32 µg/mL
- MIC of the component in combination ([9]; 24 h, K1-EJ + GarKS): 3.1 µg/mL
- MIC of the component in combination ([9]; 24 h, K1-EJ + GarKS + MP1): 0.78 µg/mL
- MIC ([9]; 24 h): 24 µg/mL
- MIC of the component in combination ([9]; 48 h, GarKS + MP1): 0.68 µg/mL
- MIC of the component in combination ([9]; 48 h, K1-EJ + GarKS): 6 µg/mL
- MIC of the component in combination ([9]; 48 h, K1-EJ + GarKS + MP1): 2.8 µg/mL
- MIC ([9]; 48 h): 25 µg/mL
- MIC of the component in combination ([10]; 5 h, GarKS + MP1): 0.73 µg/mL
- MIC of the component in combination ([10]; 5 h, K1-EJ + GarKS): 1.5 µg/mL
- MIC of the component in combination ([10]; 5 h, K1-EJ + GarKS + MP1): 0.68 µg/mL
- MIC ([10]; 5 h): 23.6 µg/mL
- MIC of the component in combination ([10]; 24 h, GarKS + MP1): 1.6 µg/mL
- MIC of the component in combination ([10]; 24 h, K1-EJ + GarKS): 12 µg/mL
- MIC of the component in combination ([10]; 24 h, K1-EJ + GarKS + MP1): 1.6 µg/mL
- MIC ([10]; 24 h): 49 µg/mL
- MIC of the component in combination ([10]; 48 h, GarKS + MP1): 3.1 µg/mL
- MIC of the component in combination ([10]; 48 h, K1-EJ + GarKS): 13 µg/mL
- MIC of the component in combination ([10]; 48 h, K1-EJ + GarKS + MP1): 5.8 µg/mL
- MIC ([10]; 48 h): 52 µg/mL
- MIC of the component in combination ([11]; 5 h, GarKS + MP1): 0.2 µg/mL
- MIC of the component in combination ([11]; 5 h, K1-EJ + GarKS): 1.7 µg/mL
- MIC of the component in combination ([11]; 5 h, K1-EJ + GarKS + MP1): 0.33 µg/mL
- MIC ([11]; 5 h): 12.5 µg/mL
- MIC of the component in combination ([11]; 24 h, GarKS + MP1): 0.73 µg/mL
- MIC of the component in combination ([11]; 24 h, K1-EJ + GarKS): 6.3 µg/mL
- MIC of the component in combination ([11]; 24 h, K1-EJ + GarKS + MP1): 0.78 µg/mL
- MIC ([11]; 24 h): 51 µg/mL
- MIC of the component in combination ([11]; 48 h, GarKS + MP1): 0.83 µg/mL
- MIC of the component in combination ([11]; 48 h, K1-EJ + GarKS): 12 µg/mL
- MIC of the component in combination ([11]; 48 h, K1-EJ + GarKS + MP1): 1.6 µg/mL
- MIC ([11]; 48 h): 51 µg/mL
